According to PMC5034536, “Molecular insights into substrate recognition and catalytic mechanism of the chaperone and FKBP peptidyl-prolyl isomerase SlyD” (BMC Biology, 2016):
Read-outs that look alike come from different tables or passages of the source.

Tests used:
[1] = target: chimeric TtSlyD construct in which the IF domain is replaced by the flap loop from human FKBP12 (TtSlyDΔIF) (Thermus thermophilus | human) (UniProt P62942)
[2] = target: full-length SlyD from Thermus thermophilus (TtSlyDFL) (Thermus thermophilus)
[3] = target: chimeric TtSlyD construct in which the IF domain is replaced by the flap loop from human FKBP12 (TtSlyDΔIF) (Thermus thermophilus | human) (UniProt P62942); remark: listed apart in the source
[4] = target: TtSlyDFL Y63F (Thermus thermophilus)
[5] = target: full-length SlyD from Thermus thermophilus (TtSlyDFL) (Thermus thermophilus); remark: listed apart in the source
[6] = target: chimeric TtSlyD construct in which the IF domain is replaced by the flap loop from human FKBP12 (TtSlyDΔIF) (Thermus thermophilus | human) (UniProt P62942); remark: listed apart in the source
[7] = target: full-length SlyD from Thermus thermophilus (TtSlyDFL) (Thermus thermophilus); remark: listed apart in the source
[8] = target: chimeric TtSlyD construct in which the IF domain is replaced by the flap loop from human FKBP12 (TtSlyDΔIF) (Thermus thermophilus | human) (UniProt P62942); remark: listed apart in the source
[9] = target: full-length SlyD from Thermus thermophilus (TtSlyDFL) (Thermus thermophilus); remark: listed apart in the source
[10] = target: chimeric TtSlyD construct in which the IF domain is replaced by the flap loop from human FKBP12 (TtSlyDΔIF) (Thermus thermophilus | human) (UniProt P62942); remark: listed apart in the source

Substance | Kd [1] [µM] | dH [1] [kcal/mol] | stoichiometry N [1] | KD1 (site 1, IF domain) [2] [µM] | KD2 (site 2, FKBP domain) [2] [µM] | N1 (site 1, IF domain) [2] | N2 (site 2, FKBP domain) [2] | dH1 (site 1, IF domain) [2] [kcal/mol] | dH2 (site 2, FKBP domain) [2] [kcal/mol] | KD1 (site 1, IF domain) [5] [µM] | KD2 (site 2, FKBP domain) [5] [µM] | N1 (site 1, IF domain) [5] | N2 (site 2, FKBP domain) [5] | dH1 (site 1, IF domain) [5] [kcal/mol] | dH2 (site 2, FKBP domain) [5] [kcal/mol] | further results
S2 peptide | 14.4 | -10 | 0.91 | 0.15 | 3.16 | 0.98 | 1.05 | -14.8 | -8.9 |  |  |  |  |  |  | Kd [3]: 12.2 µM; dH [3]: -5.9 kcal/mol; stoichiometry N [3]: 0.88; KD1 (site 1, IF domain) [4]: 0.03 µM; KD2 (site 2, FKBP domain) [4]: 1.58 µM; N1 (site 1, IF domain) [4]: 0.81; N2 (site 2, FKBP domain) [4]: 0.78; dH1 (site 1, IF domain) [4]: -11.3 kcal/mol; dH2 (site 2, FKBP domain) [4]: -6 kcal/mol
S2-P25A peptide (from UniProt P0A7V0 20-34) | 12.1 | -11.7 | 0.91 |  |  |  |  |  |  | 0.129 | 7.04 | 0.92 | 1.02 | -16.6 | -8.5 | kcat/KM of peptidyl-prolyl cis/trans isomerization of the S2-P25A peptide, NMR lineshape analysis, 25 °C, 0.2 μM enzyme [6]: 2.48e+08 M⁻¹ s⁻¹; kcat/KM of peptidyl-prolyl cis/trans isomerization of the S2-P25A peptide, NMR lineshape analysis, 25 °C, 0.2 μM enzyme, peptide 10–1000 μM [7]: 3.68e+08 M⁻¹ s⁻¹; kcat/KM of peptidyl-prolyl cis/trans isomerization of the S2-P25A peptide, NMR lineshape analysis, 25 °C, 0.2 μM enzyme [8]: 2.84e+08 M⁻¹ s⁻¹; KM of peptidyl-prolyl cis/trans isomerization of the S2-P25A peptide (cis form), Michaelis-Menten fit of NMR lineshape data, 25 °C [9]: 2000 µM
S2-P25A/P29E peptide (from UniProt P0A7V0 20-34) |  |  |  | 1.45 | 44 | 1.13 | 1.09 | -14.1 | -5.9 |  |  |  |  |  |  | Kd [10]: 29 µM; dH [10]: -6.3 kcal/mol; stoichiometry N [10]: 0.84
S2-P25N/P29N peptide (from UniProt P0A7V0 20-34) |  |  |  | 0.234 | 8.33 | 0.93 | 1.18 | -16.8 | -2.3 |  |  |  |  |  |  | 
S2-P29E peptide (from UniProt P0A7V0 20-34) | 13.8 | -10.8 | 0.69 |  |  |  |  |  |  | 0.513 | 5.68 | 0.88 | 1.02 | -15.8 | -2.7 | 
S2-W23A peptide (from UniProt P0A7V0 20-34) | 17.1 | -8.1 | 0.77 |  |  |  |  |  |  | 0.855 | 18.8 | 0.76 | 0.91 | -15.8 | -2.3 | 
SlpA linker P5T peptide |  |  |  |  |  |  |  |  |  |  |  |  |  |  |  | Kd [5]: 130 µM; dH [5]: -0.9 kcal/mol; stoichiometry N [5]: 1.76
